Test results: US20250297004A1, “NECTIN-4 BINDING AGENTS” (INNATE PHARMA, priority 2022, published 2025)
Where a chain is given by its changes, count along the chain named.

B1: H4L1 (antibody, human IgG1, V domains shown)
VH: QVQLVQSGAEVKKPGASVKVSCKASGYIFTSYWMHWVKQAPGQGLEWMGEIDPSDSYTNYNQKFKGRVTMTLDKSTSTTYMELSSLRSEDTAVYYCARGYGNYGDYWGQGTLVTVSS
VL: DVVMTQSPLSLPVTPGEPASISCRSSKSLLHSNGITYLYWYLQKPGQSPQLLIYQMSNLASGVPDRFSSSGSGTDFTLKISRVEAEDVGVYYCAQNLELPWTFGGGTKVEIK
notes: human IgG1 isotype
B2: H5L3 (antibody, human IgG1, kappa, V domains shown)
VH: B1 VH with A40R
VL: DVVMTQSALSNPVTPGEPASISCRSSKSLLHSNGITYLYWYLQKPGQSPQLLIYQMSNLASGVPDRFSSSGSGTDFTLKISRVEAEDVGVYYCAQNLELPWTFGGGTKVEIKR
notes: Tested as human IgG1
B3: H3L3 (antibody, human IgG1, V domains shown)
VH: B1 VH with K38R
VL: B1 VL with P8A, L11N
notes: human IgG1 isotype
B4: H3L1 (antibody, human IgG1, V domains shown)
VH: B1 VH with K38R
VL: B1 VL
notes: human IgG1 isotype
B5: H0L0 (antibody, human IgG1, V domains shown)
VH: B1 VH with I28T, K38R, L72R, K74T, T79V
VL: B1 VL with V2I, S69G
notes: human IgG1 isotype; also called HOLO; humanized 5E7 variant H0L0
B6: H3L2 (antibody, human IgG1, V domains shown)
VH: B1 VH with K38R
VL: B1 VL with L11N
notes: human IgG1 isotype
B7: H1L0 (antibody, human IgG1, V domains shown)
VH: B1 VH with I28T, K38R, K74T
VL: B1 VL with V2I, S69G
notes: human IgG1 isotype
B8: H2L0 (antibody, human IgG1, V domains shown)
VH: B1 VH with I28T, K38R
VL: B1 VL with V2I, S69G
notes: human IgG1 isotype
B9: H3L0 (antibody, human IgG1, V domains shown)
VH: B1 VH with K38R
VL: B1 VL with V2I, S69G
notes: human IgG1 isotype
B10: H4L2 (antibody, human IgG1, V domains shown)
VH: B1 VH
VL: B1 VL with L11N
notes: human IgG1 isotype

target: human Nectin-4 (protein used in the SPR affinity measurements) (human) (UniProt Q96NY8); test: SPR, human IgG1; settings: not given

Molecule | Kd [nM] | koff [s⁻¹] | kon [M⁻¹ s⁻¹]
B1 | 19.5 | 0.0059 | 310000
B2 | 21.5 | 0.0053 | 250000
B3 | 27 | 0.007 | 260000
B4 | 22 | 0.0087 | 400000
B5 | 80.2 | 0.014 | 170000
B6 | 25.9 | 0.0081 | 310000
B7 | 67.3 | 0.0072 | 110000
B8 | 46.4 | 0.0062 | 130000
B9 | 35.8 | 0.0041 | 110000
B10 | 26.8 | 0.0054 | 200000

target: T1, human Nectin-4 expressed on cells (human, UniProt Q96NY8 32-510); test: cell-based or functional assay; settings: not given
T1 sequence: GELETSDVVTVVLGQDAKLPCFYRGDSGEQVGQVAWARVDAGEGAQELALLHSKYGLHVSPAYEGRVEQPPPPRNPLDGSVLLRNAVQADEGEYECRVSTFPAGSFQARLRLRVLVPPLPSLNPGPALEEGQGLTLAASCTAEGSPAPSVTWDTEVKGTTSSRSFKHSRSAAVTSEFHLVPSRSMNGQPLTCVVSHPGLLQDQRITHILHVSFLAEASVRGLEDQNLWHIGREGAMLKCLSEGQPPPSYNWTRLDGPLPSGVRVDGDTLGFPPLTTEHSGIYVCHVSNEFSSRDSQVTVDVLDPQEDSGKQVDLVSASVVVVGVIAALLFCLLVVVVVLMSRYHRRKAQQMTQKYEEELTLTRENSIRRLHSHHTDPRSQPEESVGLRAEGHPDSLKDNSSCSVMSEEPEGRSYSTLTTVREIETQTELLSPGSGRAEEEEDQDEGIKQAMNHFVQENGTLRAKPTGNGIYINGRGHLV

Molecule | internalization efficiency on SUM190, normalized to chimeric parental antibody (Fab-ZAP, CTG), experiment 1 | internalization efficiency on SUM190, normalized to chimeric parental antibody (Fab-ZAP, CTG), experiment 2
B1 | 73.5 % of chimeric parental | 72.6 % of chimeric parental
B2 | 82.8 % of chimeric parental | 74.9 % of chimeric parental
B3 | 65.3 % of chimeric parental | 59.6 % of chimeric parental
B4 | 82.1 % of chimeric parental | 41 % of chimeric parental
B5 | 65.9 % of chimeric parental | 35.4 % of chimeric parental
B6 | 69.8 % of chimeric parental | 45.5 % of chimeric parental
B7 | 83.7 % of chimeric parental | 58.6 % of chimeric parental
B8 | 74.2 % of chimeric parental | 61.8 % of chimeric parental
B9 | 81.4 % of chimeric parental | 69.7 % of chimeric parental
B10 | 83.6 % of chimeric parental | 67.6 % of chimeric parental

target: T1, human Nectin-4 expressed on cells; test: cell-based or functional assay; settings: not given; remark: another data set of the same source

Molecule | internalization efficiency on MDA-MB-468, normalized to chimeric parental antibody (Fab-ZAP, CTG), first column | internalization efficiency on MDA-MB-468, normalized to chimeric parental antibody (Fab-ZAP, CTG), second column
B1 | 31 % of chimeric parental | 31 % of chimeric parental
B2 | 87.8 % of chimeric parental | 87.8 % of chimeric parental
B3 | 43.8 % of chimeric parental | 43.8 % of chimeric parental
B4 | 48.2 % of chimeric parental | 48.2 % of chimeric parental
B5 | -36.2 % of chimeric parental | -36.2 % of chimeric parental
B6 | 13.7 % of chimeric parental | 13.7 % of chimeric parental
B7 | -7.4 % of chimeric parental | -7.4 % of chimeric parental
B8 | -35.5 % of chimeric parental | -35.5 % of chimeric parental
B9 | 1.2 % of chimeric parental | 1.2 % of chimeric parental
B10 | 64.2 % of chimeric parental | 64.2 % of chimeric parental

target: T2, human Nectin-4 (Homo sapiens, UniProt Q96NY8); test: Binding to human Nectin-4 by SPR; settings: SPR association constant; first set (Table 4)
T2 sequence (Q96NY8 32-510): T1 sequence
Procedure: (§1) The antibodies in Table 3 of Example 3 were cloned as human IgG1 isotype antibodies, produced and purified, then tested for binding to human Nectin-4. Affinity of the 16 humanized variants, as well as their association and dissociation constants were assessed by SPR analysis. Table 4 summarizes all the calculated constants (Affinity constant KD (nM), association constant ka (1/Ms) and dissociation constant kd (1/s)).
as §1, with “Table 6” for “Table 3”, “Example 5” for “Example 3”, “Table 7” for “Table 4”

Molecule | ka [M⁻¹ s⁻¹]
B3 | 260000
B4 | 400000 ± 30000
B5 | 170000
B6 | 310000
B7 | 110000
B8 | 130000
B9 | 110000

same assay, conditions: SPR association constant; second set (Table 7)

Molecule | ka [M⁻¹ s⁻¹]
B1 | 310000 ± 30000
B5 | 170000
B10 | 200000

same assay, conditions: SPR dissociation constant; first set (Table 4)

Molecule | kd [s⁻¹]
B3 | 0.007
B4 | 0.0087 ± 0.0004
B5 | 0.014
B6 | 0.0081
B7 | 0.0072
B8 | 0.0062
B9 | 0.0041

same assay, conditions: SPR dissociation constant; second set (Table 7)

Molecule | kd [s⁻¹]
B1 | 0.0059 ± 0.0003
B5 | 0.014
B10 | 0.0054

same assay, conditions: SPR; human IgG1 isotype antibodies; first set (Table 4)

Molecule | Kd [nM]
B3 | 27
B4 | 22 ± 0.4
B5 | 80.2
B6 | 25.9
B7 | 67.3
B8 | 46.4
B9 | 35.8

same assay, conditions: SPR; human IgG1 isotype antibodies; second set (Table 7)

Molecule | Kd [nM]
B1 | 19.5 ± 0.8
B5 | 80.2
B10 | 26.8

target: T1, human Nectin-4 expressed on cells; test: flow cytometry on SUM190 cells, MedFI at saturation; settings: not given
Procedure: The humanized antibodies in Table 3 of Example 3 and in Table 6 of Example 5 were cloned, produced and purified, then tested for binding to Nectin-4 expressing cells by flow cytometry. Binding of humanized variants in human IgG1 format was determined on the SUM190 cell line expressing high levels of Nectin-4.

Molecule | Max MedFi [MedFI]
B1 | 18400
B2 | 27100
B3 | 23800
B4 | 17200
B5 | 15500
B6 | 22900
B7 | 17300
B8 | 16700
B9 | 17600
B10 | 24400
